Assay results reported in publication PMC4931181.
Where “and” joins values, the source holds several entries; their conditions need not be identical. Equal entries are not always repeated. Where two headings read alike, the source gives them in different places.

Key:
[1] = system: H2A-H2B heterodimer;yNap1 (Xenopus laevis;Saccharomyces cerevisiae); experiment: EMSA
[2] = system: H2A-H2B heterodimer (Xenopus laevis); experiment: EMSA
[3] = biological target: yNap1_IF1 (G225D, S237D, T244D, D246R) (Saccharomyces cerevisiae) (UniProt P25293); experiment: native MS
[4] = biological target: yNap1_IF1 (G225D, S237D, T244D, D246R) (Saccharomyces cerevisiae) (UniProt P25293); experiment: native MS; remark: listed apart in the source

Row | stoichiometry N [3] | stoichiometry N [4] | Substance | Kd [1] [nM] | Kd [2] [nM]
1 | – | – | (H3-H4)2-DNA tetrasome on 147-bp 601 DNA | 940 | 29
2 | 2 | 2 and 4 | yNap1_IF1 (G225D, S237D, T244D, D246R) (from UniProt P25293 1-417) (natural protein) | – | –
